In the nanobody polyreactivity screen of Harvey et al. (2022):

Assay: yeast display, Sf9 membrane polyspecificity reagent, FACS + sequencing; frameworks hold sequencing errors
How it was run: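 In a synthetic yeast display library (Saccharomyces cerevisiae BJ5465), nanobody expression was induced with galactose for 36–48 hours. FACS gates were set low and high (top ~1%) using anti-HA fluorescence for expression and streptavidin fluorescence for binding of the Sf9 membrane reagent. Each polyreactivity label is drawn from the gate of origin.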

Row | Sequence | polyreactivity (PSR sort gate)
1 | QFQLVESGRGLVQAGGSLRLSCAASVRTFGFNAMGRYRQAPRKERELVAAISGSGGRTYYADSVKGRFTISRDKAKNTVYLQMNSLKPEDTAVYYCAAGARRGGSGYWGQGTQVTVSS | high polyreactivity
2 | QVHLVESGGGLVQAGGSLRLSCAASGSTFYYYVMGWYRQAPGKETELVAAINSGGSTYYADSVKGRFTISRDNAKNTVYLQMNSLKPEDTAVYYCAKSWSYWYQYYYSGQGTQVTVSS | low polyreactivity
3 | QVQLVESGGGLVQAGGSLRLSCAASGFTFYKYVMGWYRQAPGKERELVAAITTSGGSTYYADSVKGRFTISRDNAKNTVYLQMNSLKPEDTAVYYCNALARWWAYYDYGYWGQGTQVTVSS | low polyreactivity
4 | QVHLVESGGGLVQAGGSLRLSCAASGRTFGWNVMGWYRQAPGTERELVAAISGSGGSTYYADSVKGRFTISRDNAKNTVYLQMNSLKPEDTAVYYCAALYGPGREYDYWGQGTQVTVSS | low polyreactivity
5 | QVQLVESGGGLVQAGGSLRLSCAASGSIFRANTMGWYRQAPGKERELVAVISSGGRTYYADSVKGRFTISRDNAKNTVYLQMNSLKPEDTAVYYCAAKRGYGYGYWGQGTQVTVSS | high polyreactivity
6 | QVQLVESGGGLVQAGGSLRLSCAASGITFFWNAMGWYRTAPGKERELVAAISSGAGTTYADSVKGRFTISRDNAKNTVYLQMNSLKPEDTAVYYCAARRYRYAYGPYNYWGQGTQVTVSS | low polyreactivity
7 | QVQLVESGGGLVQAGGSLRLSCAASGSTFSSYAMGWYRQAPGKERELVAAISYSGGSTYYADSVKGRFTISRDNAKNTVYLQMNSLKPEDTAVYYCAAVGTWQHRSYGYWGQGTQVTVSS | high polyreactivity
8 | QVQLVQSGGCLVQAGGSLRLSCAASGSTIGDNAMGWYRQAPGKERELDAAIDYSGGSTRYADSVKGRFTISRDNAKNTVYLQMNSLKPEDTAVYYCAADYASGSRLFPKTLDYWGQGTQVTVSS | low polyreactivity
9 | QVHLVESVGGLVQAGGILRLSCAASGFTFYSYAMGCYRQAPGNERELVAAITRSGGNTYYADSVKGRFTISRDNAKNTVYLQMNSLKPEDTAVYYCDATGKRISPSHYYCGQGTQVTVSS | high polyreactivity
10 | QVQLVESGGGLVQAGGSLRLSCAASGRIFRNYAMGWYRQAPGKERELVAAISGNGGNTYYADSVKGRFTISRDNAKNTVYLQMNSLKPEDTAVYYCNAYHWLYSYRYSRTYDYWGQGTQVTVSS | high polyreactivity
11 | QVQLVESGGGLVQAGGSLRLSCAASGFIFVGNAMGGYRQAPGKERELVAAITSTDNTTYADSVKGRFTISRDNAKNTVYLQMNSLKPEDTAVYYCNARGYPYLYGYDYWGQGTQVTVSS | low polyreactivity
12 | QDQLVESGGGLVQAVGSLRLSCAASGSTFGLYAMGWYRQAPGKERELVAAITIRGGSTYYADSVKGRFTISRDNAKKTVYLQMNSLKPEDTAVYYCAADYWYGCFEYWGQGTQVTVSS | low polyreactivity
13 | QVQLVESGGGLVQAGGSLRLSCAASGFTFYNYAMGWYRQAPGKERELVAAISRSGRTYYADSVKGRFTISRDNAKNTVYLQMNSLKPEDTAVYYCAAGHGGDPGSGYWGQGTQVTVSS | high polyreactivity
14 | QVQLVESGGGFVQAGGSLGLSCAASGSTFQFYALGWYRQAPGKERELVAVITSGDDTNYADSVKGRFTISRDNATYTVYLQMNSLKPEDTAVYYCAVEYILVYTRVRSYWFDYWGQGTQVTVSS | low polyreactivity
15 | QVQLVESGGGLVQAGGSLRLSCAASGRIFYRNAMGWYRQAPGQERELDAGITRGGSTNYADSVKGRFTISRDNAKNTVYLQMNSLKPEDTAVYYCAKAIPAKFYSEAGYDYWGQGTQVTVSS | low polyreactivity
16 | QVQLVESGGGLVQAGGSLRLSCAASGYIFPGNAMGWYRQAPGKERELVATISGSAGSTSYADSVKGRFTISRDNAKNTVYLQMNSLKPEDTAVYYCNKAYSYSWGDLDYWGQGTQVTVSS | high polyreactivity
17 | QVQLVESGGGLVQAGGRLRLSCAASGSIFPFYAMGWYRQAPGKERELVAAISDRGGSTYYADSVKGRFTISRDNAKNTVYLQMISLKPEDTAVYYCAKGGEVSQGYTDEYDYWGQGTQVTVSS | low polyreactivity
18 | QVQLVESGGGLVQAGGSLRLSCAASGFTFSRYAMGWYRQAPGKERELVAAITRGGSTNYADSVKGRFTISRDNAKNTVYLQMNSLKPEDTAVYYCAVRIRYSTNAYYYWGQGTQVTVSS | high polyreactivity
19 | QVQLVESGGGLVQAGGSLRLSCAASGSIFPYNVMGWYRQAPGKERELVAAISTRGGRTYYADSVKGRFTISRDNAKNTVYLQMNSLKPEDTAVYYCNTVVLRYLYNYWGQGTQVTVSS | high polyreactivity
20 | QVQLVESGGGLVQSGGSLRLSCAASGSTLIGNAMGWYRQAPGKERELVAAISSGGRTYYADSVKGRFTISRDNAKNTVYLQMNSLKPEDTAVYYCAADTVGTNVVSPELDYWGQGTQVTVSS | low polyreactivity
21 | QVQLLEIGGGLVQAGGSLRQSCMASGSILGDRMSWYRQAPGKEHELVATIFDGGITYYADSMKGRFTISRDNAKNTVYLQMNSLRPEDTAVYYCGASFDGYRYHVYCGQGTQVTVSS | low polyreactivity

Row | Sequence | polyreactivity (PSR sort gate)
22 | QVQLVESGGGLVQAGGSLRLSCAASGSTFRSYAMGWYRQAPGKERELVAVISKRGGSTYYADSVKGRFTISRDNAKNTVYLQMNSLKPEDTAVYYCAARPGPYWTVTFRSPKYYYWGQGTQVTVSS | high polyreactivity
23 | QVQLVESGGGLVQAGGSLRLICAASGTNFVFNAIGWYRQAPGKERELVAINSGGSTYYADSVKGRFTNSRDNAKNTVFLQMNSLIPEDTAVYYCAKDRLRVWRFDYWGQGTQVTVST | low polyreactivity
24 | QVQLVESGGGLVQAGGSLRLSCAASGSTFWYYAMGWYRQAPGKERELVASITYSGGSTYYADSVKGRFTISRDNAKNTVSLQMNSLKPEDTAVYYCAAEGYYSNYHYWGQGTQVTVSS | low polyreactivity
25 | QVQLVESGGGLVQAGGSLRLSCAASGSTFGRYAMGWYRQAPGKERELVAGISRGGTTYYADSVKGRFTISRDNAKNTVYLQLNSLKPEDTAVYYCAKLRWPVFDYWGQGTQVTVSS | high polyreactivity
26 | QVQLVESGGGLVQAGGSLRLSCAASGRTFRYNAMGWYRQAPGKERELVAVINSNGGSTYYADSVKGRFTISRDNAKNTVYLQMNSLKPEDTAVYYCAADYLRIQEYDYWGQGTQVTVSS | low polyreactivity
27 | QVQLVESGGGLVQAGGSLRLSCAASGSTFLVNAMGWYRQAPGKERELVAAITSGGDTNYADSVKGRFTISHDNAKNTVYLQMNSLKPEDTEVYYCATDYFNYRYFDFRWYYYWGQGTQVTVSS | high polyreactivity
28 | QVQHVESGGGLDQAGGSLRLSCAASGFTFVFNAMGWYRQAPGKERELVATITNGGSTYYADSVKGRFTISRDNAKNTVYLQMNSLKPEDTAVYYCAKTWFAYRDYDFWGQGTQVTVSS | high polyreactivity
29 | QVQLVESWGGLVQAGGSLRLSCAASGRTFYYYTMGWYRQAPGKEREFVAAISWSGGGTYYADSVKGRFTISRDNAKNTDYLQMNILKPEDTAVYYCATGPRIRYDYWGQGTQVNVSS | high polyreactivity
30 | QVQLVESGGGLVQAGGSLRLSCAASGIIFLDNVMRWYRQAPGKERELVAAISSSGGSTYYADSVKGRFTISRDNAKNTVYLQMNSLKPEDTAVYYCAAYFRRGFYYWGQGTQVTVSS | high polyreactivity
31 | QVQLVESGGGFVQAGGSLRLSCAASGFTFWVYAMGWYRQAPGKERELVAGITWSGGSTSYADSVKGRFTISRDNAKNTVYLQMNSLKPEDTAVYYCAADDFGYPDDMNYWGQGTQVTVSS | low polyreactivity
32 | QVQLVESGGGLVQAGGSLRLSCAASGFIFARYAMGWYRQAPGKERELVARITTGDSTYYADSVKGRFTISRDNAKNTVYLQMNSLKPEDTAVYYCAADDNVSVVGLYYWGQGTQVTVSS | low polyreactivity
33 | QVQLVESGGGLVQAGGSLRLSCAASGGIFFPNAIGWYRQAPGKERELVAAISWSAGSTYYADSVKGRFTISRDNAKNTVYLQMNSLKPEDTAVYYCAAAGSNYTVWYGYYYWGQGTQVTVSS | low polyreactivity
34 | QDQLVESGGGLVQAGGSLRLSCAASGTIFDVYAMGWYIQAPGKERELVAAISYGGGSTYYADSVKGRFTISRDNAKNTVYLQINSLKPEDTAVYYCAADDDVYGLEYGYWGQGTQVTVSS | low polyreactivity
35 | QVQLVESGGGLDQAGGSLRLSCAASGRNYGLYAMGWYIQAPWKERELVAAITRTASTNYADSVNGRFTISRDNAKNTVYLQMNSLKPEDTAVYYCAAESWYPSDLWYTYEYWGQGTQVTVSS | low polyreactivity
36 | QVQLVESGGGLVQAGGSLRLSCAASRSIFLYYAMGWYRQAPGKERELVAAISYSGSGTYADSVKGRFTISRDNAKNTVYLQMNSLKPEDTAVSYCNVDYGSNSYDYWGQGTQVTVSS | low polyreactivity
37 | QVQLVESGGGLVQAGGSLRLSCAASGSTFDYYAMGWYRQTPGKERELVAAISWSGGSTYYADSVKGRFTISRDNAKNTVYLQMNSPKPEDTAVYYCATGTYFPRYKYFEGYYWGQGTQVTVSS | high polyreactivity
38 | QVQLVESGGGLVQAGGSLRLSCAASGRTFIYYAMGWYRQAPGKEREFVAIISWNGTSTNYADSVKGRFTISRDKAKNTVYLQMNSLKPEDTAVYYCAASFWSDYYRYDYWGQGTQVTVSS | low polyreactivity
39 | QVQLVESGGGLVQAGGSLRLSCAASGFIFRNYAMGWYRQAPGKERELVAAITGRGTYTYYADSVKGRFTISRDNAKNTVYLQMNSLKPEDTAVYYCAARSLALVYRKYDYWGQGTQVTVSS | high polyreactivity
40 | QVQLVESGGGLVQAGGSLRLSCAASGRIFVRYAMGWYRQAPGKERELVAAISSGGRTHYADSVKGRFTISRDNAKNTVYLQRNSLKPEDTAVYDCATRLRSTTRYYYWGQGTQVTVSS | high polyreactivity
41 | QVQLVESGGGLVQAGGSLRLICAASGSTFAIYAMGWYRPAPGKERELVAAITGRSGSTYYADSVKGRFTISRDNAKNTVFLQMNSLKPEDTAVYYCAAQGGYRRTPYIHRDYWGQGTQVTVSS | high polyreactivity
